Data published in US5972599, “High affinity nucleic acid ligands of cytokines” (NeXstar Pharmaceuticals, Inc.).

Tests used:
IFN-gamma [1] = target: T1, IFN-gamma (Homo sapiens, UniProt P01579 P01579:24-161); assay: competition; 30 pM 125I-IFN-gamma, A549 cells; conditions: tags: Genzyme (Cambridge MA); Upstate Biotechnology for early SELEX rounds; chain copies: 2 inferred
Method: The cells were washed 3 times with PBS. […] Incubations were carried out at 4° C. with shaking for 2 hrs. The cells were washed 2 times with cold PBS to remove free IFN and detached with 0.5% SDS.

IFN-gamma [2] = target: T1, IFN-gamma; assay: filter; biphasic 2.7/103 nM; conditions: tags: Genzyme (Cambridge MA); Upstate Biotechnology for early SELEX rounds; chain copies: 2 inferred
Method: (§1) The determination of equilibrium dissociation constants (Kds) for RNA pools was made subsequent to rounds 5, 8, 12, and 17 to monitor the progress of each SELEX. The Kds of RNA pools for mouse IFN-gamma (Genzyme Inc., Cambridge Mass.) were also determined after rounds 8 and 17. Kds were determined for individual ligands after cloning and sequencing of RNA pools and truncations (described below). Nitrocellulose filter binding was used to determine Kds as follows: filter discs were placed into a vacuum manifold and wetted with 5 ml of mPBS buffer. ^32P-labeled-RNA was incubated with serial dilutions of IFN-gamma in binding buffer for 5–10 min at 37° C. to allow binding to occur. […] The filter discs were dried and counted in a liquid scintillation counter (Beckmann Instruments, Palo Alto Calif.). Equilibrium dissociation constants were determined by least square fitting of the data points using the Kaleidagraph™ graphics program (Synergy Software, Reading Pa.). […] Biphasic binding constants were calculated according to standard procedures. Kds were determined by least square fitting of the data points using the Kaleidagraph™ graphics program.
(§2) The Kds of individual RNAs within each group were determined by nitrocellulose filter binding as described above. The Kds were determined using either a monophasic or biphasic least squares fit of the data.

IL-4 = IL-4 (Homo sapiens, UniProt P05112 P05112:25-153); assay: filter; specificity control; conditions: tags: R&D Systems
IFN-gamma [3] = target: T1, IFN-gamma; assay: filter; specificity control; conditions: tags: Genzyme (Cambridge MA); Upstate Biotechnology for early SELEX rounds; chain copies: 2 inferred
IL-10 = IL-10 (Homo sapiens, UniProt P22301 P22301:19-178); assay: filter; TEM buffer, 37 C; conditions: tags: Bachem or R & D Systems; chain copies: 2 inferred
Method: Internally-labeled RNA transcripts were prepared by including [γ-^32P]ATP in T7 RNA polymerase transcription reactions. Full-length transcripts were purified on 8% denaturing polyacrylamide gels to ensure size homogeneity. Gel-purified RNA was diluted to a concentration of ~5 nM in TEM buffer, heated to 80° C. then chilled on ice to facilitate secondary structure formation. RNA concentrations were kept lower than 100 pM in binding reactions. Briefly, equal amounts of RNA were incubated with varying amounts of IL-10 in 50 µL of TEM buffer for 10 min at 37° C. RNA-protein mixtures were passed through pre-wet nitrocellulose filters (0.2µ) and the filters were immediately washed with 5 mL of binding buffer. Radioactivity retained on filters was determined by liquid scintillation counting. The quantities of RNA bound to filters in the absence of protein was determined and used for background correction. The percentage of input RNA retained on each filter was plotted against the corresponding log protein concentration. The nonlinear least square method to obtain the dissociation constant (K_d).

IFN-gamma [4] = target: T1, IFN-gamma; assay: filter; biphasic 1.8/750 nM; conditions: tags: Genzyme (Cambridge MA); Upstate Biotechnology for early SELEX rounds; chain copies: 2 inferred
Method: as §1, §2

IFN-gamma [5] = target: T1, IFN-gamma; assay: filter; printed as '12 4 nM', decimal uncertain; conditions: tags: Genzyme (Cambridge MA); Upstate Biotechnology for early SELEX rounds; chain copies: 2 inferred
Method: The determination of equilibrium dissociation constants (Kds) for RNA pools was made subsequent to rounds 5, 8, 12, and 17 to monitor the progress of each SELEX. The Kds of RNA pools for mouse IFN-gamma (Genzyme Inc., Cambridge Mass.) were also determined after rounds 8 and 17. Kds were determined for individual ligands after cloning and sequencing of RNA pools and truncations (described below). Nitrocellulose filter binding was used to determine Kds as follows: filter discs were placed into a vacuum manifold and wetted with 5 ml of mPBS buffer. ^32P-labeled-RNA was incubated with serial dilutions of IFN-gamma in binding buffer for 5–10 min at 37° C. to allow binding to occur. Binding mixes were centrifuged as described above to remove aggregates, aspirated through the filter discs, and then immediately washed with 5 ml mPBS buffer. The filter discs were dried and counted in a liquid scintillation counter (Beckmann Instruments, Palo Alto Calif.). Equilibrium dissociation constants were determined by least square fitting of the data points using the Kaleidagraph™ graphics program (Synergy Software, Reading Pa.). […] Biphasic binding constants were calculated according to standard procedures. Kds were determined by least square fitting of the data points using the Kaleidagraph™ graphics program.

TNF-alpha = TNF-alpha (Homo sapiens, UniProt P01375 P01375:77-233); assay: FP; no value shown, Kd above 1 uM per footnote; filter binding, DPBS; conditions: tags: Genzyme or R&D Systems; chain copies: 3
Chain of TNF-alpha (P01375 77-233, one chain of several): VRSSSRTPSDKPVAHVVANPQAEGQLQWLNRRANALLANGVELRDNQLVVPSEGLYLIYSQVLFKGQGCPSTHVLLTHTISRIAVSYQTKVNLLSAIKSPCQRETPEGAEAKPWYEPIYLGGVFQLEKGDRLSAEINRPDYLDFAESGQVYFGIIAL

T1 sequence (P01579 24-161, one chain of several): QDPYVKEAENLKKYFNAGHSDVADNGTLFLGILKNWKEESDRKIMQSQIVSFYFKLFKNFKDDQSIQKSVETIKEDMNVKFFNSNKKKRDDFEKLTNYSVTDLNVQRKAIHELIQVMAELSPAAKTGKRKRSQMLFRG
Chain of IL-10 (P22301 19-178, one chain of several): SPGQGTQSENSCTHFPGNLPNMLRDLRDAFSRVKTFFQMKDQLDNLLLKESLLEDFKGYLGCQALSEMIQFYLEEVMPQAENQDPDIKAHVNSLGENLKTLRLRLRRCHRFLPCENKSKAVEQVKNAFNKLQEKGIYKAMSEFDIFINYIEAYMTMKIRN
Chain of IL-4 (P05112 25-153, one chain of several): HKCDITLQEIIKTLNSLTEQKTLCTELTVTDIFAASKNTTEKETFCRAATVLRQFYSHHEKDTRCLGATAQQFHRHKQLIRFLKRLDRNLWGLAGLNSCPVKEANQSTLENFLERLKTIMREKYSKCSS

B1: IFN-gamma 2'NH2-30 (ssRNA)
RNA: GGGAGGACGAUGCGGCAGGUAAUUACAUGAAGGUGGGUUAGGUACUUUCAGGGUCAGACGACUCGCCCGA
modifications: 2'-NH2 all C and U
IFN-gamma [1]
  IC50: 10 nM
IFN-gamma [2]
  Kd: 2.7 nM

B2: IL-10 ligand 43 (ssRNA)
RNA: GGGAGACAAGAAUAAACGCUCAAACAUCGUAUAACUCUAAGGGCCUGGAUAUACGAUGAAUUCGACAGGAGGCUCACAACAGGC
modifications: 2'-F all C and U
IL-4
  binding result: no binding
IFN-gamma [3]
  binding result: no binding
IL-10
  Kd: 213 nM

B3: IFN-gamma 2'NH2-17 (ssRNA)
RNA: GGGAGGACGAUGCGGUGGUAGCGCGAUAUAGCGCUGGUAGGGUUGCCGGUGAUCAGACGACUCGCCCGA
modifications: 2'-NH2 all C and U
IFN-gamma [4]
  Kd: 1.8 nM

B4: IFN-gamma 2'NH2-17 truncate (ssRNA)
RNA: GGGAGGACGAUGCGGUGGUAGCGCGAUAUAGCGCUGGUAGGGUUGCCGGUG
modifications: 2'-NH2 all C and U
IFN-gamma [5]
  Kd: 12.4 nM

B5: TNF 12A (ssRNA)
RNA: GGGAGCUCAGAAUAAACGCUCAACUUCUUGGCCCCGUCUCAAUGUCCGUACUUCUUCGACAUGAGGCCCGGAUCCGGC
TNF-alpha
  Kd: > 1000 nM
